These results are taken from patent US9994616B2, “c-Met protein agonist” (The University of Tokyo, priority 2013, dated 2018).

In one test the target is c-Met-Fc (Homo sapiens, UniProt P08581). In words: Binding ability by surface plasmon resonance (SPR, Biacore). As to conditions: for kon: read-out: ka. As to the method: Binding ability of the thioether macrocyclic peptide was evaluated by SPR measurement using Biacore (GE Healthcare).
As a sensor chip, Sensor Chip CM5 was used and an anti-IgG antibody was immobilized on a measurement lane and a control lane by using Human Antibody Capture Kit.
On the measurement lane was immobilized c-Met-Fc, while on the control lane was immobilized Fc protein.
As a running buffer, HBS-EP+ buffer containing 0.1% DMSO was used and a dissociation constant of the thioether macrocyclic peptide was calculated at 5 different concentrations by using the single-kinetics method.
(Surface plasmon resonance follows binding to a sensor surface in real time, without labels.)

In a further test the target is T1, c-Met (Homo sapiens, UniProt P08581).
T1 construct: endogenous in cells; host or cells: EHMES-1 (human mesothelioma)
As to the kind of experiment: Activity of dimeric peptide by ELISA (c-Met phosphorylation level in EHMES-1 cells). As to conditions: for Activity (c-Met phosphorylation level by ELISA): Table 12, EHMES-1 cells, 10 minutes stimulation; for c-Met phosphorylation: Table 13. The class given is cell-based. As for the experimental part:
Each dimeric peptide was added to human EHMES-1 cells and the mixture was incubated for 10 minutes to stimulate the cells.
As a control experiment, a recombinant human HGF protein was added and the mixture was incubated for 10 minutes to stimulate cells.
A phosphorylation level of c-Met was quantitatively analyzed using ELISA.
Background: An ELISA detects its analyte on a solid surface through an enzyme-linked reagent.

[1] abbreviates: Table 11, monomer and dimeric peptides.

Where a SMILES comes first, the peptide text is derived from it. Bridges are numbered along the chain shown (N, C = ends). Roman numbers before positions name the chains, in order. Where no end group is shown, it is not given here. [ ]: non-standard residue; d: D form. NMeW = CN[C@@H](Cc1c[nH]c2ccccc12)C(=O)O; NMeH = CN[C@@H](Cc1c[nH]cn1)C(=O)O; NMeE = CN[C@@H](CCC(=O)O)C(=O)O; NMeQ = CN[C@@H](CCC(N)=O)C(=O)O; NMeD = CN[C@@H](CC(=O)O)C(=O)O; NMeN = CN[C@@H](CC(N)=O)C(=O)O; NMeL = CN[C@@H](CC(C)C)C(=O)O; NMeV = CN[C@H](C(=O)O)C(C)C; βAla = NCCC(=O)O

T1 sequence (P08581 25-1390): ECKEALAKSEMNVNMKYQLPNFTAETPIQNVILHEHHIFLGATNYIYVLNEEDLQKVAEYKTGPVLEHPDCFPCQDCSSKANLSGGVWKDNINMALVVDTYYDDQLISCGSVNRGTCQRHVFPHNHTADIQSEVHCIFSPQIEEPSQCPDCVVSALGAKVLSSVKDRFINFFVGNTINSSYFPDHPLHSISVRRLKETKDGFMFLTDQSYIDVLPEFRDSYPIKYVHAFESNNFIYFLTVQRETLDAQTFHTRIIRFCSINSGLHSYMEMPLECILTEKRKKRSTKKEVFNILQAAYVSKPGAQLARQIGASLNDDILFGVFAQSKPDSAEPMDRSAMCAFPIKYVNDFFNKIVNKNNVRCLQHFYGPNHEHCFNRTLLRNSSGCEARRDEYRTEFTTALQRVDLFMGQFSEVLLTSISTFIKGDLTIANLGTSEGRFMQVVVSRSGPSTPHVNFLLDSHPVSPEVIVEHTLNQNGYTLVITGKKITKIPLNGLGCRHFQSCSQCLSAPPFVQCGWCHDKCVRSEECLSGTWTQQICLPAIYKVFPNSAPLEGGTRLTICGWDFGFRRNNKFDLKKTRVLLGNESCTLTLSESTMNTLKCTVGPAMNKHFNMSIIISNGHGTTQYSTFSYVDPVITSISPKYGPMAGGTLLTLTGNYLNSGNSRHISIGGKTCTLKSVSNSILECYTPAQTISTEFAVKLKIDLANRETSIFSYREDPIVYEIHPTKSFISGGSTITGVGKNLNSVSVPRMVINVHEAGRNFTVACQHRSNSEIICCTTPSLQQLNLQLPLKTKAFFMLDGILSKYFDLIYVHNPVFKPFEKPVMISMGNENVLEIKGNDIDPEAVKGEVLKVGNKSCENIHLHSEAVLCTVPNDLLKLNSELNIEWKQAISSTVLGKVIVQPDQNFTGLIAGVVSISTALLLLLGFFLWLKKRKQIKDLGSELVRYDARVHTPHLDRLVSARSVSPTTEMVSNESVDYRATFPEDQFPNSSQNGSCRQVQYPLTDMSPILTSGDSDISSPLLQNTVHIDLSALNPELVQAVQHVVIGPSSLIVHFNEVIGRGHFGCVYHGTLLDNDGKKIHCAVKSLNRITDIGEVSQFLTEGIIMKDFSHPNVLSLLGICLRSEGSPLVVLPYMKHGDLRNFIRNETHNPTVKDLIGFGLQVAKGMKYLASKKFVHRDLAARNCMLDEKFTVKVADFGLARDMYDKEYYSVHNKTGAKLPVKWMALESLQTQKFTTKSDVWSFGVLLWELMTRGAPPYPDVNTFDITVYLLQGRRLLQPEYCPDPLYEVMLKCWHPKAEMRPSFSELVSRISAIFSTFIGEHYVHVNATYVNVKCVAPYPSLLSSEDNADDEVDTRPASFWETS
Sequence of c-Met-Fc (P08581 with tags, fused parts or gaps limits assumed): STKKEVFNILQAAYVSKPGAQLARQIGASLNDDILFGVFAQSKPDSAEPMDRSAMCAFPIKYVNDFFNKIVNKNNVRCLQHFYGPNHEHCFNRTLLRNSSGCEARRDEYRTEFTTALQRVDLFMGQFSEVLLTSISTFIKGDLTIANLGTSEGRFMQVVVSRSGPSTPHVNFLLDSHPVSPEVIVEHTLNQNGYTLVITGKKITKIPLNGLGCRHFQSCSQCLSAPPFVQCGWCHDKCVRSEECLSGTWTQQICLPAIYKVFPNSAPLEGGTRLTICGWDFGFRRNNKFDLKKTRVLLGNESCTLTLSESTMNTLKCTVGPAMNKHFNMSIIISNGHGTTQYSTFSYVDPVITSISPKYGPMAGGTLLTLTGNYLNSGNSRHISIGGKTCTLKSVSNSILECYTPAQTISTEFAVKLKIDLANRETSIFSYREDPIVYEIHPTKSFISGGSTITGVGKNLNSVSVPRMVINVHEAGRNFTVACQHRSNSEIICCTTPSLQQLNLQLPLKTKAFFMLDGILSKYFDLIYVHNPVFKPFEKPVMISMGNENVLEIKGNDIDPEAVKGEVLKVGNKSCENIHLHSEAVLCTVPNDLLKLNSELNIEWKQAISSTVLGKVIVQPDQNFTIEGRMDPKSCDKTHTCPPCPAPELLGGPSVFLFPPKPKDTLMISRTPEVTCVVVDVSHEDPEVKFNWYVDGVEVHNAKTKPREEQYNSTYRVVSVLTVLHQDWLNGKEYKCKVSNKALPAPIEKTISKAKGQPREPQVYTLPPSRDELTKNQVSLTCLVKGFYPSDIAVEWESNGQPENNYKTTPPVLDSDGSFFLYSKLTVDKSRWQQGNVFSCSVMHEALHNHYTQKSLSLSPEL
Sequence of c-Met-Fc (P08581 25-307 limits assumed): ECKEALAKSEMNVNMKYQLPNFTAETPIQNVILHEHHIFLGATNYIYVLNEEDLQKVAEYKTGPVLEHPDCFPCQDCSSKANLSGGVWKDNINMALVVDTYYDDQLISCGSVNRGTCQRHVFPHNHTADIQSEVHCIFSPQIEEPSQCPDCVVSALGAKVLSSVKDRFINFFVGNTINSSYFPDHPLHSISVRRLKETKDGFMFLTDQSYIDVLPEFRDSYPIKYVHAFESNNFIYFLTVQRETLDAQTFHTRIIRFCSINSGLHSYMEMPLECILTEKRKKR

For `CC(C)C[C@@H]1NC(=O)[C@H](CC(N)=O)NC(=O)[C@H](Cc2c[nH]c3ccccc23)NC(=O)[C@H](C(C)C)N(C)C(=O)[C@H](CCC(=O)O)NC(=O)[C@H](Cc2c[nH]cn2)NC(=O)[C@H]([C@@H](C)O)NC(=O)[C@H](CCCNC(=N)N)NC(=O)[C@H](CCCNC(=N)N)NC(=O)[C@H](CC(N)=O)NC(=O)[C@H](Cc2ccccc2)NC(=O)[C@H](CCC(N)=O)NC(=O)[C@H](CCCNC(=N)N)NC(=O)[C@@H](Cc2ccc(O)cc2)NC(=O)CSC[C@@H](C(=O)NCC(N)=O)NC(=O)[C@H](CC(=O)O)NC1=O` [Peptide N11] ({CH2CO}-[dY]RQFNRRTHE[NMeV]WNLDCG-NH2; thioether N-16; C-terminus assumed), the kon on c-Met-Fc (Table 8, c-Met-Fc) turned out to be 15000 M⁻¹ s⁻¹.

As to `CC(C)C[C@@H]1NC(=O)[C@H](CC(N)=O)NC(=O)[C@H](Cc2c[nH]c3ccccc23)N(C)C(=O)[C@H](C(C)C)NC(=O)[C@H](CCC(=O)O)NC(=O)[C@H](Cc2c[nH]cn2)NC(=O)[C@H]([C@@H](C)O)NC(=O)[C@H](CCCNC(=N)N)NC(=O)[C@H](CCCNC(=N)N)NC(=O)[C@H](CC(N)=O)NC(=O)[C@H](Cc2ccccc2)NC(=O)[C@H](CCC(N)=O)NC(=O)[C@H](CCCNC(=N)N)NC(=O)[C@@H](Cc2ccc(O)cc2)NC(=O)CSC[C@@H](C(=O)NCC(N)=O)NC(=O)[C@H](CC(=O)O)NC1=O` [Peptide N12] ({CH2CO}-[dY]RQFNRRTHEV[NMeW]NLDCG-NH2; thioether N-16; C-terminus assumed), the kon on c-Met-Fc (Table 8, c-Met-Fc) was 55000 M⁻¹ s⁻¹.

As to `CC(C)C[C@@H]1NC(=O)[C@H](CC(N)=O)NC(=O)[C@H](Cc2c[nH]c3ccccc23)NC(=O)[C@H](C(C)C)NC(=O)[C@H](CCC(=O)O)NC(=O)[C@H](Cc2c[nH]cn2)NC(=O)[C@H]([C@@H](C)O)NC(=O)[C@H](CCCNC(=N)N)NC(=O)[C@H](CCCNC(=N)N)NC(=O)[C@H](CC(N)=O)NC(=O)[C@H](Cc2ccccc2)NC(=O)[C@H](CCC(N)=O)NC(=O)[C@H](CCCNC(=N)N)NC(=O)[C@@H](Cc2ccc(O)cc2)NC(=O)CSC[C@@H](C(=O)NCC(N)=O)NC(=O)[C@H](CC(=O)O)N(C)C1=O` [Peptide N15] ({CH2CO}-[dY]RQFNRRTHEVWNL[NMeD]CG-NH2; thioether N-16; C-terminus assumed), the kon at c-Met-Fc (Table 8, c-Met-Fc) worked out at 300000 M⁻¹ s⁻¹.

On to “D4-3 Bis-MAL-PEG3: dimeric peptide: two D4-3 macrocycles linked through C-terminal Cys by Bis-MAL-PEG3 linker ({CH2CO}-[dY]RQFNRRTHEVWNLDCGC; thioether N-16; not fully specified (residue 18); also: dimer: two copies joined by Bis-MAL-PEG3, linker at 18 via Bis-MAL-PEG3, other end not in the chain)”, for which, in the test with c-Met-Fc (setting [1]), the ka is listed as 1.1 10^6 M^−1s^−1 and the kd is on record as 0.070 10^−2 s^−1. Besides, in the test with c-Met, the “Activity (c-Met phosphorylation level by ELISA)” value (“Activity” below) is given as “Low” and the c-Met phosphorylation result is recorded as “Promote”.

Turning to “D5-4 Bis-MAL-PEG3: dimeric peptide: two D5-4 macrocycles linked through C-terminal Cys by Bis-MAL-PEG3 linker (peptide 1 {CH2CO}-[dY]WYYAWDQTYKAFPCG; peptide 2 {CH2CO}-[dY]WYYAWDQTYKAFPCG; thioether I:N-I:15, II:N-II:15; not fully specified (C-terminus); also: dimer: two chains joined by Bis-MAL-PEG3 through an added C-terminal Cys not in the letters)”, in the test with c-Met-Fc (setting [1]), the ka is reported as 0.12 10^6 M^−1s^−1 and the kd is 0.054 10^−2 s^−1. In the test with c-Met, the “Activity” value is given as “High” and the c-Met phosphorylation result was “Promote”.

“L5-2 Bis-MAL-PEG11: dimeric peptide: two L5-2 macrocycles linked through C-terminal Cys by Bis-MAL-PEG11 linker ({CH2CO}-YISWNEFNSPNWRFITCG[βAla]C-NH2; thioether N-17; not fully specified (residue 20); also: dimer: two copies joined by Bis-MAL-PEG11, linker at 20 via Bis-MAL-PEG11, other end not in the chain)”: in the test with c-Met-Fc (setting [1]), the ka is 0.098 10^6 M^−1s^−1 and the kd was 0.031 10^−2 s^−1. Further, in the test with c-Met, the “Activity” value was “Low” and the c-Met phosphorylation entry is “Promote”.

As for “N3: N-methylated peptide of D4-3 ({CH2CO}-[dY]R[NMeQ]FNRRTHEVWNLDC-NH2; thioether N-16; also: bridge 1-16 listed as disulfide) [Peptide N3]”, in the test with c-Met-Fc (Table 8, c-Met-Fc), the Kd (usually the free concentration of one partner at which half of the binding sites on the other are occupied at equilibrium, for simple one-to-one binding) stood at 120 nM; the ka was 0.27 10^5 M^−1s^−1; the kd is 0.31 10^−2 s^−1.

On to “N5: N-methylated peptide of D4-3 ({CH2CO}-[dY]RQF[NMeN]RRTHEVWNLDC-NH2; thioether N-16; also: bridge 1-16 listed as disulfide) [Peptide N5]”, for which, in the test with c-Met-Fc (Table 8, c-Met-Fc), binding was put at a Kd of 200 nM, the ka is on record as 0.19 10^5 M^−1s^−1 and the kd is recorded as 0.39 10^−2 s^−1.

Consider “N9: N-methylated peptide of D4-3 ({CH2CO}-[dY]RQFNRRT[NMeH]EVWNLDC-NH2; thioether N-16; also: bridge 1-16 listed as disulfide) [Peptide N9]”, for which, in the test with c-Met-Fc (Table 8, c-Met-Fc), the KD result is “Not binding”.

Consider “N10: N-methylated peptide of D4-3 ({CH2CO}-[dY]RQFNRRTH[NMeE]VWNLDC-NH2; thioether N-16; also: bridge 1-16 listed as disulfide) [Peptide N10]”, for which, in the test with c-Met-Fc (Table 8, c-Met-Fc), the Kd was found to be 300 nM, the ka was 0.25 10^5 M^−1s^−1 and the kd is recorded as 0.75 10^−2 s^−1.

On to “N14: N-methylated peptide of D4-3 ({CH2CO}-[dY]RQFNRRTHEVWN[NMeL]DC-NH2; thioether N-16; also: bridge 1-16 listed as disulfide) [Peptide N14]”, for which, in the test with c-Met-Fc (Table 8, c-Met-Fc), the Kd is 290 nM, the ka is listed as 0.21 10^5 M^−1s^−1 and the kd was 0.59 10^−2 s^−1.
